Target: FIP200 (full length) (human, UniProt Q8TDY2 1-1594)
Assay: pull-down

Chain of FIP200 (full length) (Q8TDY2 whole entry): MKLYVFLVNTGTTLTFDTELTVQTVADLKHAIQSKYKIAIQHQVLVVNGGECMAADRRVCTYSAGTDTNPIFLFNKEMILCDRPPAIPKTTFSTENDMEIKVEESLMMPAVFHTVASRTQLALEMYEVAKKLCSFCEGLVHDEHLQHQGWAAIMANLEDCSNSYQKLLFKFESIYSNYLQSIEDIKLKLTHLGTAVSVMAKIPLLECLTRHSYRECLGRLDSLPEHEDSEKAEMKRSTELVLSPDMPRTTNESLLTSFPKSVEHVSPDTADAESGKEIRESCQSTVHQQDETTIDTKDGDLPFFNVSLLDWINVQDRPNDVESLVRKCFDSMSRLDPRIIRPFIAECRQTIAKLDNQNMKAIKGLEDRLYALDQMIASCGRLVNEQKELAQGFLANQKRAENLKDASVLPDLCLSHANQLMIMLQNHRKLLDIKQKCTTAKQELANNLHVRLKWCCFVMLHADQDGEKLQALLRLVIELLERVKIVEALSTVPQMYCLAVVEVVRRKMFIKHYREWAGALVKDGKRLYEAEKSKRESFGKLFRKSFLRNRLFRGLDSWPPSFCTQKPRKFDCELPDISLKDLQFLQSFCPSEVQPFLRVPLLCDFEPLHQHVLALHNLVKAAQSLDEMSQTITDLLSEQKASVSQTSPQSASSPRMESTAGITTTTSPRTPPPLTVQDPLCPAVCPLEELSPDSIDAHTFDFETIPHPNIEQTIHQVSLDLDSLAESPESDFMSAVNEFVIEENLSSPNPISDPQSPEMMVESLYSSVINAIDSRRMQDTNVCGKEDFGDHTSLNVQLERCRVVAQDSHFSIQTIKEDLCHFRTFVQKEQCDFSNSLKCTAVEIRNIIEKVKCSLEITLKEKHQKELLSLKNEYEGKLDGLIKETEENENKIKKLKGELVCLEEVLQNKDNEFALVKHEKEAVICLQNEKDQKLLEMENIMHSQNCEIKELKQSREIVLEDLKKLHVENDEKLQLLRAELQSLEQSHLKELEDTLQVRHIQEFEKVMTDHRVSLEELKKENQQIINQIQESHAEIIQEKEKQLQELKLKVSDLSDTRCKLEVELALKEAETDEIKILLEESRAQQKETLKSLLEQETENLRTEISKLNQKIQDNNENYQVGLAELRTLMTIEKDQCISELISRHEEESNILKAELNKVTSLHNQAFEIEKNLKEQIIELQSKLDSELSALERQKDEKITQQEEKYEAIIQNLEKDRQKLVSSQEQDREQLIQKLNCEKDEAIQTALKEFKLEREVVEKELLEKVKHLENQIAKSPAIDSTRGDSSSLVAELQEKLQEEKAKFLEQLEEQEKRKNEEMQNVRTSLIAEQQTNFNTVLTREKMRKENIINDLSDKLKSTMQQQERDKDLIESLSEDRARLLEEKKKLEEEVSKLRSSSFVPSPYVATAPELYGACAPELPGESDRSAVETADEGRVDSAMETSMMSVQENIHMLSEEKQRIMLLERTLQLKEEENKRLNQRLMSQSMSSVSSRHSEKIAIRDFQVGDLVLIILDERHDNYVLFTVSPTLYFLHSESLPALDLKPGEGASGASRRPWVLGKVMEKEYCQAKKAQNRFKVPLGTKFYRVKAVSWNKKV

- binding result: binds
B1: ULK1 (full length) (enzyme)
chain: MEPGRGGTETVGKFEFSRKDLIGHGAFAVVFKGRHREKHDLEVAVKCINKKNLAKSQTLLGKEIKILKELKHENIVALYDFQEMANSVYLVMEYCNGGDLADYLHAMRTLSEDTIRLFLQQIAGAMRLLHSKGIIHRDLKPQNILLSNPAGRRANPNSIRVKIADFGFARYLQSNMMAATLCGSPMYMAPEVIMSQHYDGKADLWSIGTIVYQCLTGKAPFQASSPQDLRLFYEKNKTLVPTIPRETSAPLRQLLLALLQRNHKDRMDFDEFFHHPFLDASPSVRKSPPVPVPSYPSSGSGSSSSSSSTSHLASPPSLGEMQQLQKTLASPADTAGFLHSSRDSGGSKDSSCDTDDFVMVPAQFPGDLVAEAPSAKPPPDSLMCSGSSLVASAGLESHGRTPSPSPPCSSSPSPSGRAGPFSSSRCGASVPIPVPTQVQNYQRIERNLQSPTQFQTPRSSAIRRSGSTSPLGFARASPSPPAHAEHGGVLARKMSLGGGRPYTPSPQVGTIPERPGWSGTPSPQGAEMRGGRSPRPGSSAPEHSPRTSGLGCRLHSAPNLSDLHVVRPKLPKPPTDPLGAVFSPPQASPPQPSHGLQSCRNLRGSPKLPDFLQRNPLPPILGSPTKAVPSFDFPKTPSSQNLLALLARQGVVMTPPRNRTLPDLSEVGPFHGQPLGPGLRPGEDPKGPFGRSFSTSRLTDLLLKAAFGTQAPDPGSTESLQEKPMEIAPSAGFGGSLHPGARAGGTSSPSPVVFTVGSPPSGSTPPQGPRTRMFSAGPTGSASSSARHLVPGPCSEAPAPELPAPGHGCSFADPITANLEGAVTFEAPDLPEETLMEQEHTEILRGLRFTLLFVQHVLEIAALKGSASEAAGGPEYQLQESVVADQISLLSREWGFAEQLVLYLKVAELLSSGLQSAIDQIRAGKLCLSSTVKQVVRRLNELYKASVVSCQGLSLRLQRFFLDKQRLLDRIHSITAERLIFSHAVQMVQSAALDEMFQHREGCVPRYHKALLLLEGLQHMLSDQADIENVTKCKLCIERRLSALLTGICA
